Experimental data reported in patent US20140221282A1 (AstraZeneca / MedImmune, published 2014).
Ends that are not written are not given here. Y‑shaped‑mPEG40KD = Y-shaped methoxy-PEG of 40 kDa attached to the Lys side chain; mPEG40KD = methoxy-PEG of 40 kDa

T1: amylin receptor of rat nucleus accumbens membranes (rat)
T1 chain 1: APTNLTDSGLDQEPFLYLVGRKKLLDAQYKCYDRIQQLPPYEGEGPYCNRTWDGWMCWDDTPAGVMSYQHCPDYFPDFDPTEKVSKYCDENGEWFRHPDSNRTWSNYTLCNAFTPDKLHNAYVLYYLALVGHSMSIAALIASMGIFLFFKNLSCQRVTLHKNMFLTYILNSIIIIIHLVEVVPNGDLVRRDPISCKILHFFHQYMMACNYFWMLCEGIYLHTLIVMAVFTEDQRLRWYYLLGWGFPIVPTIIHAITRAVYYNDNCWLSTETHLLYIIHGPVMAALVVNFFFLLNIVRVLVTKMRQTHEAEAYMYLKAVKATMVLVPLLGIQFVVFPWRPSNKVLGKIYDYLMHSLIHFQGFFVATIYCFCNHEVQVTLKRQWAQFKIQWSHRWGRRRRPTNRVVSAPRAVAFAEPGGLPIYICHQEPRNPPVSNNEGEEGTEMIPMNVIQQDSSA
T1 chain 2: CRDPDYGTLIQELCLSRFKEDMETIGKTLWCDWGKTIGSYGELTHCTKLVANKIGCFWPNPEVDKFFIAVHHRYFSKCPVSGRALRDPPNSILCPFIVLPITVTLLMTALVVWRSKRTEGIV

T2: human amylin receptor 3 (human, UniProt P30988 25-474; O60896 24-148)
T2 sequence (looked up) 1: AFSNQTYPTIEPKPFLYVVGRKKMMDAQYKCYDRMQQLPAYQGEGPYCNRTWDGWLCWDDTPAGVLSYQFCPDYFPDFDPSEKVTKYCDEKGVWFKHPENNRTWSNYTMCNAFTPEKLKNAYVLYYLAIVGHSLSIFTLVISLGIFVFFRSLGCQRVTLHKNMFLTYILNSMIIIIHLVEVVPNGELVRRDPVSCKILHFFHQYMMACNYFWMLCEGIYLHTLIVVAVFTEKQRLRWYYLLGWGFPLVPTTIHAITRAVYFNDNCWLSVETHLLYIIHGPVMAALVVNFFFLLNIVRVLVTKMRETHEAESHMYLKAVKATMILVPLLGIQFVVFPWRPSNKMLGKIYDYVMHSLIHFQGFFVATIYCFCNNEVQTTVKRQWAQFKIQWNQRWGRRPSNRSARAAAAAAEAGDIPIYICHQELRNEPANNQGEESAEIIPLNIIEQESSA
T2 sequence (looked up) 2: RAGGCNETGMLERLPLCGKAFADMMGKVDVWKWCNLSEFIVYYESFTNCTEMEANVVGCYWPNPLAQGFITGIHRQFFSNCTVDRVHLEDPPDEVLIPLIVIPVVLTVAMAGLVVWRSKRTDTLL


Columns and labels:
[1] = target: T1, amylin receptor of rat nucleus …; assay: competition with 125I-rat amylin, rat nucleus accumbens membranes
human amylin receptor 3 [2] = target: T2, human amylin receptor 3; assay: cell-based or functional assay
human amylin receptor 3 [3] = target: T2, human amylin receptor 3; assay: competition with 125I-rat amylin, human AMY3 receptor
[4] = target: T3, amylin receptor of rat nucleus accumbens membranes (rat); assay: competition with 125I-rat amylin, rat nucleus accumbens membranes
T3 construct: whole, on cells; native tissue membranes; also called RNA membranes

Row | Binder | IC50 [1] | Functional EC50, Human AMY3 (human amylin receptor 3 [2]) | IC50 (human amylin receptor 3 [3]) | IC50 [4]
1 | KCNTATCATQRLANFLVRSSK(mPEG 40 kDa)NLGPVLPPTNVGSNTY-NH2 (ends and bridges not checked, also called Cmpd 69) [[K^21(mPEG40KD)]-Cmpd 51] | 104 nM | – | – | –
2 | CNTATCATQRLANFLVRSSK(mPEG 40 kDa)NLGPVLPPTNVGSNTY-NH2 (ends and bridges not checked, also called Cmpd 70) [[K^21(mPEG40KD)]-Cmpd 52] | 112 nM | – | – | –
3 | CNTATCATQRLANFLVHSSNNFGPK(mPEG40KD)LPPTNVGSNTY-NH2 (ends and bridges not checked, also called Cmpd 77) [[K^26(mPEG40KD)]-Cmpd 60] | – | 0.078 nM | 60 nM | 39 nM
4 | CNTATCATQRLANFLVHSSNNFGPILK(mPEG40KD)PTNVGSNTY-NH2 (ends and bridges not checked, also called Cmpd 83) [[K^28(mPEG40KD)]-Cmpd 65] | 53 nM | 0.2 nM | 46 nM | –
5 | CNTATCATQRLANFLVHSSNNFGPIK(mPEG40KD)PPTNVGSNTY-NH2 (ends and bridges not checked, also called Cmpd 82) [[K^27(mPEG40KD)]-Cmpd 64] | 51 nM | 0.2 nM | 87 nM | –
6 | CNTATCATQRLANFLK(mPEG 40 kDa)HSSNNFGPILPPTNVGSNTY-NH2 (ends and bridges not checked, also called Cmpd 89) [[K^17(mPEG40KD)]-Cmpd 58] | – | 2.23 nM | 334 nM | –
7 | CNTATCATQRLANFLVHSK(mPEG 40 kDa)NNFGPILPPTNVGSNTY-NH2 (ends and bridges not checked, also called Cmpd 91) [[K^20(mPEG40KD)]-Cmpd 58] | – | 5.51 nM | 918 nM | –
8 | CNTATCATQRLANFLVHSSNNK(mPEG 40 kDa)GPILPPTNVGSNTY-NH2 (ends and bridges not checked, also called Cmpd 86) [[K^23(mPEG40KD)]-Cmpd 58] | 611 nM | 2.82 nM | 240 nM | –
9 | CNTATCATQRLANFLVHSSNNFK(mPEG40KD)PILPPTNVGSNTY-NH2 (ends and bridges not checked, also called Cmpd 80) [[K^24(mPEG40KD)]-Cmpd 62] | 79 nM | 0.41 nM | 111 nM | –
10 | CNTATCATQRLANFLVK(mPEG 40 kDa)SSNNFGPILPPTNVGSNTY-NH2 (ends and bridges not checked, also called Cmpd 90) [[K^18(mPEG40KD)]-Cmpd 58] | – | 0.85 nM | 238 nM | –
11 | CNTATCATQRLANFLVHSSK(mPEG 40 kDa)NFGPILPPTNVGSNTY-NH2 (ends and bridges not checked, also called Cmpd 76) [[K^21(mPEG40KD)]-Cmpd 59] | 131 nM | 1.75 nM | 388 nM | –
12 | CNTATCATQRLANFLVHSSNNFGK(mPEG40KD)ILPPTNVGSNTY-NH2 (ends and bridges not checked, also called Cmpd 81) [[K^25(mPEG40KD)]-Cmpd 63] | 31 nM | 0.086 nM | 48 nM | –
13 | CNTATCATQRLANFLVHSSNNFGPK(mPEG40KD)LPPTNVGSNTY-NH2 (ends and bridges not checked, also called Cmpd 88) [[K^26(mPEG40KD)]-Cmpd 58] | – | 0.082 nM | 74 nM | –
14 | CNTATCATQRLANFLVHSSNK(mPEG 40 kDa)FGPILPPTNVGSNTY-NH2 (ends and bridges not checked, also called Cmpd 85) [[K^22(mPEG40KD)]-Cmpd 58] | 148 nM | 1.66 nM | – | –
15 | CNTATCATQRLANFLVHSSNNFGPK(Y‑shaped‑mPEG40KD)LPPTNVGSNTY-NH2 (ends and bridges not checked, also called Cmpd 79) [[K^26(Y-shaped-mPEG40KD)]-Cmpd 60] | – | 1.74 nM | 1130 nM | 132 nM
16 | CNTATCATQRLANFLVRSSNNLGPK(mPEG40KD)LPPTNVGSNTY-NH2 (ends and bridges not checked, also called Cmpd 72) [[K^26(mPEG40KD)]-Cmpd 54] | 54 nM | – | – | –

The remaining lines, values ahead:

Row | IC50 [1] | Functional EC50, Human AMY3 (human amylin receptor 3 [2]) | IC50 (human amylin receptor 3 [3]) | IC50 [4] | Binder
17 | 75 nM | – | – | – | CNTATCATQRLANFLVRSSNNLGPVLPPTK(mPEG40KD)VGSNTY-NH2 (ends and bridges not checked, also called Cmpd 74) [[K^31(mPEG40KD)]-Cmpd 56]
18 | – | 1.69 nM | 860 nM | – | CNTATCATQRLANFLVHSSNNFGPILPPTNVK(mPEG40KD)SNTY-NH2 (ends and bridges not checked, also called Cmpd 93) [[K^33(mPEG40KD)]-Cmpd 58]
19 | – | 0.034 nM | 77 nM | – | CNTATCATQRLANFLVHSSNNFGPILPPTNVGK(mPEG40KD)NTY-NH2 (ends and bridges not checked, also called Cmpd 94) [[K^34(mPEG40KD)]-Cmpd 58]
20 | 61 nM | 0.1 nM | 80 nM | – | CNTATCATQRLANFLVHSSNNFGPILPPTK(mPEG40KD)VGSNTY-NH2 (ends and bridges not checked, also called Cmpd 78) [[K^31(mPEG40KD)]-Cmpd 61]
21 | – | 0.122 nM | 143 nM | – | CNTATCATQRLANFLVHSSNNFGPILPPTNVGSK(mPEG40KD)TY-NH2 (ends and bridges not checked, also called Cmpd 95) [[K^35(mPEG40KD)]-Cmpd 58]
22 | – | 3.07 nM | 984 nM | – | CNTATCATQRLANFLVHSSNNFGPILPPTNVGSNK(mPEG40KD)Y-NH2 (ends and bridges not checked, also called Cmpd 96) [[K^36(mPEG40KD)]-Cmpd 58]
23 | 27 nM | 0.11 nM | 47 nM | – | CNTATCATQRLANFLVHSSNNFGPILPK(mPEG40KD)TNVGSNTY-NH2 (ends and bridges not checked, also called Cmpd 84) [[K^29(mPEG40KD)]-Cmpd 66]
24 | – | 24.7 nM | 1000 nM | – | CNTATCATQRLANFLVHSSNNFGPILPPTNK(mPEG40KD)GSNTY-NH2 (ends and bridges not checked, also called Cmpd 92) [[K^32(mPEG40KD)]-Cmpd 58]
25 | 599 nM | 4.25 nM | 685 nM | – | CNTATCATQRLANFLVHSSNNFGPILPPK(mPEG40KD)NVGSNTY-NH2 (ends and bridges not checked, also called Cmpd 87) [[K^30(mPEG40KD)]-Cmpd 58]
26 | 86 nM | – | – | – | KCNTATCATQRLANFLVRSSNNLGPVLPPTK(mPEG40KD)VGSNTY-NH2 (ends and bridges not checked, also called Cmpd 73) [[K^31(mPEG40KD)]-Cmpd 55]
27 | – | – | – | 0.1 nM | KCNTATCATQRLANFLVRSSNNLGPVLPPTNVGSNTY-NH2 (ends and bridges not checked, also called Cmpd 49) [rat amylin, KCNTATCATQRLANFLVRSSNNLGPVLPPTNVGSNTY-NH2]
